Measured values from PMC10247930, “The effects of novel macrocyclic chelates on the targeting properties of the ^68Ga-labeled Gastrin releasing peptide receptor antagonist RM2” (EJNMMI Research, 2023).

Test: in vivo
Design: species or system BALB/c nu/nu mice
Conditions: male, BALB/c nu/nu, mouse, iv, 2.6 MBq, total radioactivity
Procedure: Biodistribution. BALB/c nu/nu male mice were implanted subcutaneously with 10 million PC-3 tumor cells, freshly expanded in saline. Biodistribution studies were performed 3 to 4 weeks after tumor cell inoculation when the tumor-bearing mice reached an average mass of 20 ± 3 g. Mice were injected with ^68Ga-X-RM2 (100 µL, 2.6 MBq) into the tail vein. The animals were sacrificed at 30, 60, and 120 min post-injection. Then the organs of interest were collected and weighed, and their radioactivity content was measured in a gamma counter.

Row | Structure (SMILES) | tissue to tissue ratio at 0.5 h (Tumour/blood ratio) | tissue to tissue ratio at 1 h (Tumour/blood ratio) | tissue to tissue ratio at 2 h (Tumour/blood ratio) | tissue to tissue ratio at 0.5 h (Tumour/bone ratio) | tissue to tissue ratio at 1 h (Tumour/bone ratio) | tissue to tissue ratio at 2 h (Tumour/bone ratio) | tissue to tissue ratio at 0.5 h (Tumour/kidneys ratio) | tissue to tissue ratio at 1 h (Tumour/kidneys ratio) | tissue to tissue ratio at 2 h (Tumour/kidneys ratio) | tissue to tissue ratio at 0.5 h (Tumour/liver ratio) | tissue to tissue ratio at 1 h (Tumour/liver ratio) | tissue to tissue ratio at 2 h (Tumour/liver ratio) | tissue to tissue ratio at 0.5 h (Tumour/muscle ratio) | tissue to tissue ratio at 1 h (Tumour/muscle ratio) | tissue to tissue ratio at 2 h (Tumour/muscle ratio)
1 | CC(C)C[C@H](NC(=O)C[C@H](O)[C@H](CC(C)C)NC(=O)[C@H](Cc1c[nH]cn1)NC(=O)CNC(=O)[C@@H](NC(=O)[C@H](C)NC(=O)[C@H](Cc1c[nH]c2ccccc12)NC(=O)[C@H](CCC(N)=O)NC(=O)[C@@H](Cc1ccccc1)NC(=O)CN1CCC(NC(=O)CCCCC2(N(CC(=O)O)CC(=O)O)CN(CC(=O)O)CCN(CC(=O)O)C2)CC1)C(C)C)C(N)=O [AAZTA^5-RM2] | 3.53 | 8.38 | 15.6 | 21.8 | 36 | 57.5 | 1.2 | 1.41 | 1.31 | 6.04 | 7.55 | 5.92 | 10.3 | 37.6 | 60.7
2 | CC(C)C[C@H](NC(=O)C[C@H](O)[C@H](CC(C)C)NC(=O)[C@H](Cc1c[nH]cn1)NC(=O)CNC(=O)[C@@H](NC(=O)[C@H](C)NC(=O)[C@H](Cc1c[nH]c2ccccc12)NC(=O)[C@H](CCC(N)=O)NC(=O)[C@@H](Cc1ccccc1)NC(=O)CN1CCC(NC(=O)CN2CCN(CC(=O)O)CCN(CC(=O)O)CCN(CC(=O)O)CC2)CC1)C(C)C)C(N)=O (68Ga complex, metal not drawn) [DOTA-RM2, reference compound] | 2.35 | 3.88 | 4.58 | 11.2 | 8.99 | 8.6 | 1.53 | 1.89 | 2.05 | 3.19 | 3.4 | 4 | 14.4 | 21.8 | 31.7
3 | CC(C)C[C@H](NC(=O)C[C@H](O)[C@H](CC(C)C)NC(=O)[C@H](Cc1c[nH]cn1)NC(=O)CNC(=O)[C@@H](NC(=O)[C@H](C)NC(=O)[C@H](Cc1c[nH]c2ccccc12)NC(=O)[C@H](CCC(N)=O)NC(=O)[C@@H](Cc1ccccc1)NC(=O)CN1CCC(NC(=O)CCCCC2(N(C)CC(=O)O)CN(CC(=O)O)CCN(CC(=O)O)C2)CC1)C(C)C)C(N)=O [DATA^5m-RM2] | 4.23 | 14.6 | 18.2 | 16.2 | 29.3 | 50.2 | 1.73 | 2.2 | 2.41 | 5.86 | 7.57 | 6.09 | 25.4 | 56.8 | 62.2
